Data as given in patent publication US20230067757A1.

How the values were obtained:
[1] = target: human claudin 18 isoform 2 (claudin 18.2) (human); experiment: cell-based or functional assay
[2] = target: human claudin 18 isoform 2 (claudin 18.2) (human); experiment: immunofluorescence imaging on CHO-Claudin18.2 cells, serial dilution of antibody; table drawn under the curves (run with Hu-2, Hu-9, Hu-10)
[3] = target: human claudin 18 isoform 2 (claudin 18.2) (human); experiment: immunofluorescence imaging, CHO-CLDN18.2 cells (FIG. 3B)

Sequence of PC1 (in-house positive control CLDN18.2-specific antibody zolbetuximab) (VH): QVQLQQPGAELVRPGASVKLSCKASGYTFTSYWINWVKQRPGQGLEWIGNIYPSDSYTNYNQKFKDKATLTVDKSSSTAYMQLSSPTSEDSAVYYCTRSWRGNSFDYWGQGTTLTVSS
Sequence of PC1 (in-house positive control CLDN18.2-specific antibody zolbetuximab) (VL): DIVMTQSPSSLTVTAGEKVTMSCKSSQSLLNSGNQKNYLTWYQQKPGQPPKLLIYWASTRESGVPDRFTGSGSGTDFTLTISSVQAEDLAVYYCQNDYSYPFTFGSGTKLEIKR

ADCC EC50, similar assay with human effector cells (data not shown) [1]: 0.66 nM
EC50 [2]: 3.2 nM
EC50 [3]: 3.2 nM
Substance: PC1 (in-house positive control CLDN18.2-specific antibody zolbetuximab)
